Earlier results in article PMC2679154.

Target: IGF-IR (Homo sapiens) (UniProt P08069)
UniProt P08069, sequence (P08069 31-736, chain 1 of 2): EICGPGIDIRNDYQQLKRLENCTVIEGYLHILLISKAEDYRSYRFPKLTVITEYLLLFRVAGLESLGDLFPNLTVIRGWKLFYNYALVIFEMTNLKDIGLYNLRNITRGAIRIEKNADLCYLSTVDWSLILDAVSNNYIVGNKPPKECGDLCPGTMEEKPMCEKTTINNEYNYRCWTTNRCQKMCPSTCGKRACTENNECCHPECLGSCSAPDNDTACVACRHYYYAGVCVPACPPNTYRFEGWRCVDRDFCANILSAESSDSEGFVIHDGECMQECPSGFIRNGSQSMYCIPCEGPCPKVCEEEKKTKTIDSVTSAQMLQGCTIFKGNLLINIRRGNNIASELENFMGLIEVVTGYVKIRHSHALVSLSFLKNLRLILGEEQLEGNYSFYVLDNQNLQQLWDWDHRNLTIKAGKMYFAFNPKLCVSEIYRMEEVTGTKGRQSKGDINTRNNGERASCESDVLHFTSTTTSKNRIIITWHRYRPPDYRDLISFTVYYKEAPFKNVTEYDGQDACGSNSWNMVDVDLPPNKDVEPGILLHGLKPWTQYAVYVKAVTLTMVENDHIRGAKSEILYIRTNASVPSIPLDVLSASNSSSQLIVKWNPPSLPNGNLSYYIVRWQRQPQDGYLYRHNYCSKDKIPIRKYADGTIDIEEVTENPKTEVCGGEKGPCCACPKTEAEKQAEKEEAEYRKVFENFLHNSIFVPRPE
UniProt P08069, sequence (P08069 741-935, chain 2 of 2): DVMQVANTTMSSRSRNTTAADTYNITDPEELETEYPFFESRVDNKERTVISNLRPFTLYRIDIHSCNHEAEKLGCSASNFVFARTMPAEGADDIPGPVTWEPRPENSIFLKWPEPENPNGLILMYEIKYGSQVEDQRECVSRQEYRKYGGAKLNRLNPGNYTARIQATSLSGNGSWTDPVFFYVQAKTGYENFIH

Kd: 100 nM
Substance: insulin (from UniProt P01308)
